In patent US20140348819A1, “Methods of Treating Cancer” (Dana-Farber Cancer Institute, Inc., priority 2011, published 2014):

Tested on: six V600E BRAF melanoma cell lines
Test: Screening of recombinant RTK ligands for ability to confer resistance to BRAFi (PLX4720) or MEKi (PD184352) (Table 4)
Assay type: cell-based, human
Set-up: ability of recombinant RTK ligand to confer resistance / ability of recombinant RTK ligand to confer resistance (screening value): scale not given here
In short: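 Resistance to BRAFi (PLX4720) or MEKi (PD184352) was tested in six V600E BRAF melanoma lines given one of 22 recombinant RTK ligands. For a subset of RTKs, activation was checked by high-throughput tyrosine kinase phosphorylation profiling and western blot.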

B1: Pleiotrophin (protein, UniProt P21246 33-168, looked up)
Pleiotrophin: GKKEKPEKKVKKSDCGEWQWSVCVPTSGDCGLGTREGTRTGAECKQTMKTQRCKIPCNWKKQFGAECKYQFQAWGECDLNTALKTRTGSLKRALHNAECQKTVTISKPCGKLTKPKPQAESKKKKKEGKKQEKMLD
ability of recombinant RTK ligand to confer resistance (A2058, PD184352 - 1 uM, ligand 3.9 ng/ml): 1.06
ability of recombinant RTK ligand to confer resistance (A2058, PD184352 - 1 uM, ligand 15.625 ng/ml): 1.07
ability of recombinant RTK ligand to confer resistance (A2058, PD184352 - 1 uM, ligand 62.5 ng/ml): 1.03
ability of recombinant RTK ligand to confer resistance (A2058, PD184352 - 1 uM, ligand 250 ng/ml): 1.00
ability of recombinant RTK ligand to confer resistance (A2058, PD184352 - 1 uM, ligand 1000 ng/ml): 0.87
ability of recombinant RTK ligand to confer resistance (A2058, PLX4720 - 2 uM, ligand 3.9 ng/ml): 1.03
ability of recombinant RTK ligand to confer resistance (A2058, PLX4720 - 2 uM, ligand 15.625 ng/ml): 1.04
ability of recombinant RTK ligand to confer resistance (A2058, PLX4720 - 2 uM, ligand 62.5 ng/ml): 1.04
ability of recombinant RTK ligand to confer resistance (A2058, PLX4720 - 2 uM, ligand 250 ng/ml): 1.02
ability of recombinant RTK ligand to confer resistance (A2058, PLX4720 - 2 uM, ligand 1000 ng/ml): 0.93
ability of recombinant RTK ligand to confer resistance (C32, PD184352 - 1 uM, ligand 3.9 ng/ml): 1.07
ability of recombinant RTK ligand to confer resistance (C32, PD184352 - 1 uM, ligand 15.625 ng/ml): 1.08
ability of recombinant RTK ligand to confer resistance (C32, PD184352 - 1 uM, ligand 62.5 ng/ml): 1.07
ability of recombinant RTK ligand to confer resistance (C32, PD184352 - 1 uM, ligand 250 ng/ml): 1.12
ability of recombinant RTK ligand to confer resistance (C32, PD184352 - 1 uM, ligand 1000 ng/ml): 0.99
ability of recombinant RTK ligand to confer resistance (C32, PLX4720 - 2 uM, ligand 3.9 ng/ml): 1.01
ability of recombinant RTK ligand to confer resistance (C32, PLX4720 - 2 uM, ligand 15.625 ng/ml): 1.04
ability of recombinant RTK ligand to confer resistance (C32, PLX4720 - 2 uM, ligand 62.5 ng/ml): 0.95
ability of recombinant RTK ligand to confer resistance (C32, PLX4720 - 2 uM, ligand 250 ng/ml): 0.96
ability of recombinant RTK ligand to confer resistance (C32, PLX4720 - 2 uM, ligand 1000 ng/ml): 0.87
ability of recombinant RTK ligand to confer resistance (Colo 829, PD184352 - 1 uM, ligand 3.9 ng/ml): 1.05
ability of recombinant RTK ligand to confer resistance (Colo 829, PD184352 - 1 uM, ligand 15.625 ng/ml): 0.99
ability of recombinant RTK ligand to confer resistance (Colo 829, PD184352 - 1 uM, ligand 62.5 ng/ml): 0.99
ability of recombinant RTK ligand to confer resistance (Colo 829, PD184352 - 1 uM, ligand 250 ng/ml): 0.96
ability of recombinant RTK ligand to confer resistance (Colo 829, PD184352 - 1 uM, ligand 1000 ng/ml): 0.95
ability of recombinant RTK ligand to confer resistance (Colo 829, PLX4720 - 2 uM, ligand 3.9 ng/ml): 1.03
ability of recombinant RTK ligand to confer resistance (Colo 829, PLX4720 - 2 uM, ligand 15.625 ng/ml): 0.96
ability of recombinant RTK ligand to confer resistance (Colo 829, PLX4720 - 2 uM, ligand 62.5 ng/ml): 0.97
ability of recombinant RTK ligand to confer resistance (Colo 829, PLX4720 - 2 uM, ligand 250 ng/ml): 0.36
ability of recombinant RTK ligand to confer resistance (Colo 829, PLX4720 - 2 uM, ligand 1000 ng/ml): 0.98
ability of recombinant RTK ligand to confer resistance (G-361, PD184352 - 1 uM, ligand 3.9 ng/ml): 0.96
ability of recombinant RTK ligand to confer resistance (G-361, PD184352 - 1 uM, ligand 15.625 ng/ml): 0.96
ability of recombinant RTK ligand to confer resistance (G-361, PD184352 - 1 uM, ligand 62.5 ng/ml): 0.97
ability of recombinant RTK ligand to confer resistance (G-361, PD184352 - 1 uM, ligand 250 ng/ml): 0.92
ability of recombinant RTK ligand to confer resistance (G-361, PD184352 - 1 uM, ligand 1000 ng/ml): 0.92
ability of recombinant RTK ligand to confer resistance (G-361, PLX4720 - 2 uM, ligand 3.9 ng/ml): 1.04
ability of recombinant RTK ligand to confer resistance (G-361, PLX4720 - 2 uM, ligand 15.625 ng/ml): 0.97
ability of recombinant RTK ligand to confer resistance (G-361, PLX4720 - 2 uM, ligand 62.5 ng/ml): 0.94
ability of recombinant RTK ligand to confer resistance (G-361, PLX4720 - 2 uM, ligand 250 ng/ml): 0.94
ability of recombinant RTK ligand to confer resistance (G-361, PLX4720 - 2 uM, ligand 1000 ng/ml): 1.00
ability of recombinant RTK ligand to confer resistance (SK-MEL-5, PD184352 - 1 uM, ligand 3.9 ng/ml): 0.93
ability of recombinant RTK ligand to confer resistance (SK-MEL-5, PD184352 - 1 uM, ligand 15.625 ng/ml): 1.00
ability of recombinant RTK ligand to confer resistance (SK-MEL-5, PD184352 - 1 uM, ligand 62.5 ng/ml): 1.02
ability of recombinant RTK ligand to confer resistance (SK-MEL-5, PD184352 - 1 uM, ligand 250 ng/ml): 1.08
ability of recombinant RTK ligand to confer resistance (SK-MEL-5, PD184352 - 1 uM, ligand 1000 ng/ml): 1.11
ability of recombinant RTK ligand to confer resistance (SK-MEL-5, PLX4720 - 2 uM, ligand 3.9 ng/ml): 0.92
ability of recombinant RTK ligand to confer resistance (SK-MEL-5, PLX4720 - 2 uM, ligand 15.625 ng/ml): 0.89
ability of recombinant RTK ligand to confer resistance (SK-MEL-5, PLX4720 - 2 uM, ligand 62.5 ng/ml): 0.95
ability of recombinant RTK ligand to confer resistance (SK-MEL-5, PLX4720 - 2 uM, ligand 250 ng/ml): 1.07
ability of recombinant RTK ligand to confer resistance (SK-MEL-5, PLX4720 - 2 uM, ligand 1000 ng/ml): 0.97
ability of recombinant RTK ligand to confer resistance (SK-MEL-28, PD184352 - 1 uM, ligand 3.9 ng/ml): 1.11
ability of recombinant RTK ligand to confer resistance (SK-MEL-28, PD184352 - 1 uM, ligand 15.625 ng/ml): 0.98
ability of recombinant RTK ligand to confer resistance (SK-MEL-28, PD184352 - 1 uM, ligand 62.5 ng/ml): 0.93
ability of recombinant RTK ligand to confer resistance (SK-MEL-28, PD184352 - 1 uM, ligand 250 ng/ml): 1.02
ability of recombinant RTK ligand to confer resistance (SK-MEL-28, PD184352 - 1 uM, ligand 1000 ng/ml): 0.87
ability of recombinant RTK ligand to confer resistance (SK-MEL-28, PLX4720 - 2 uM, ligand 3.9 ng/ml): 1.04
ability of recombinant RTK ligand to confer resistance (SK-MEL-28, PLX4720 - 2 uM, ligand 15.625 ng/ml): 0.95
ability of recombinant RTK ligand to confer resistance (SK-MEL-28, PLX4720 - 2 uM, ligand 62.5 ng/ml): 0.95
ability of recombinant RTK ligand to confer resistance (SK-MEL-28, PLX4720 - 2 uM, ligand 250 ng/ml): 0.96
ability of recombinant RTK ligand to confer resistance (SK-MEL-28, PLX4720 - 2 uM, ligand 1000 ng/ml): 0.89
